{"source": "paper PMC12381156", "target": "G protein-coupled bile acid receptor 1 (GPBAR1), full-length human, with N-terminal FLAG and BRIL (human) (UniProt Q8TDU6)", "sequence (Q8TDU6 whole entry)": "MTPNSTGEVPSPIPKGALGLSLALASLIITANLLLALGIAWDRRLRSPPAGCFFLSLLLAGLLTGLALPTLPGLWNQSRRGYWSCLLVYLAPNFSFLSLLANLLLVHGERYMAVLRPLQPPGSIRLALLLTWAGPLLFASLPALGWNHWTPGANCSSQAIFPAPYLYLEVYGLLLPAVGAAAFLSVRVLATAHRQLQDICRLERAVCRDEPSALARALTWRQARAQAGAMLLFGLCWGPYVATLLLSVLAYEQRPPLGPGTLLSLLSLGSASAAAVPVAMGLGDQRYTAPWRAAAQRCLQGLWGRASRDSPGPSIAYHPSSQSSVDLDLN", "assay": "mass photometry; samples in 20 mM HEPES, 150 mM NaCl, 0.02%/0.002% LMNG/CHS, drop-diluted in PBS to 10 nM (apo-GPBAR1) and 30 nM (GPBAR1/Gs complex with P395 and Nb35); room temperature (18 °C)"}
{"substance": "Gs heterotrimer (Gαs, Gβ1, Gγ2) (from UniProt P63096 1-18; P63092 16-394; P62873 2-340; P59768 1-71) (complex)", "values": [{"measurement": "stoichiometry N", "value": 1}]}
